Experiments:
[1] = biological target: T1, Kv2.1 channel (Rattus norvegicus, UniProt P15387); assay: Inhibition of Kv2.1 channel currents in Xenopus oocytes (two-electrode voltage clamp), apparent affinity; type: cell-based
T1 construct: expressed in transfected cells; host or cells: Xenopus laevis oocytes, cRNA injection
T1 sequence (P15387 1-857): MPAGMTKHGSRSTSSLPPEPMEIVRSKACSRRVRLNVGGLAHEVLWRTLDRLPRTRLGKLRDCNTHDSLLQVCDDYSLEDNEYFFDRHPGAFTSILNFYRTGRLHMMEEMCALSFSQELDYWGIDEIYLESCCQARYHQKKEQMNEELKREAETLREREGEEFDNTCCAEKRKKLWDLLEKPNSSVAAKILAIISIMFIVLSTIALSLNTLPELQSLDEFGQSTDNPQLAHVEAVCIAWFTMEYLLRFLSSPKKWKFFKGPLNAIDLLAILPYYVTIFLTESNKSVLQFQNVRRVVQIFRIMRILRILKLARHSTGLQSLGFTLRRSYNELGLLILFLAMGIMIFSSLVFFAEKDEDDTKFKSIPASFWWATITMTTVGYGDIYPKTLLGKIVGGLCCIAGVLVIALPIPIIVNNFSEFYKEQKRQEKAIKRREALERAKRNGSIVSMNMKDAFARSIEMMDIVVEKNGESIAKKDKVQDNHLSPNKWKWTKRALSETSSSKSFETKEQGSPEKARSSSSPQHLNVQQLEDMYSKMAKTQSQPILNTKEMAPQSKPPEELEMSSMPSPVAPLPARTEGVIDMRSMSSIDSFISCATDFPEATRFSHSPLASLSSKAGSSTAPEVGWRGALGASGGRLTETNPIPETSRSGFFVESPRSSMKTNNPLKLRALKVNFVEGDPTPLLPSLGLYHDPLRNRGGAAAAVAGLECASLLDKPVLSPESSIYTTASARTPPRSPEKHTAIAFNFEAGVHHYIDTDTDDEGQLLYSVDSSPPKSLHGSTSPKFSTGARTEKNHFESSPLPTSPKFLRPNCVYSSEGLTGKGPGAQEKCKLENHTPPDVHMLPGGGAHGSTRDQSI

[2] = test system: ASIC1a; settings: ref Chen et al., 2006; Dawson et al., 2012; cited from earlier work
From the text: PcTx1 also contains an Arg finger motif composed of R26, R27 and R28 that is required for […] of ASIC through interactions with channel residues situated in a crevice between subunits. In the case of voltage-sensor toxins such as hanatoxin and GxTx-1E, the S3b helix within the voltage-sensing domains of Kv channels co ...

[3] = Acrylamide quenching of Trp fluorescence (Stern-Volmer), protection by lipid vesicles; type: physicochemical; settings: n = 3
Method: (§1) Protection of tryptophan fluorescence from acrylamide quenching was examined in the absence and presence of lipids (toxin: lipid = 1:500) by titration with increasing concentrations of acrylamide ([Milescu et al., 2007]). The Stern–Volmer quenching constant (KSV) was calculated based on the best fits of the following equation to the data: F0/F = 1 + KSV[Q], where F0 and F are fluorescence of the toxin in the absence and presence of acrylamide, and [Q] is the concentration of acrylamide. […] A solution containing ∼ 2 µM toxin and 0.3 M acrylamide was stirred continuously with addition of increasing concentrations of LUVs composed of 1:1 mixture of POPC and POPG. Fluorescence spectra (averaging three spectra) were recorded between 300 and 450 nm (5 nm band pass, 0° polarizer) using an excitation wavelength of 280 nm (5 nm band pass, 90° polarizer) (SPEX FluoroMax 3 spectrofluorometer) and corrected for vesicle scattering. For calculating mole–fraction partitioning coefficients (Kdx), the maximal fluorescence intensity (F at λmax) was measured and normalized to the zero lipid fluorescence intensity (F0). […]

[4] = test system: Kv2.1-ASIC1a chimeras; assay: Effect of PcTx1 on G-V relations of Kv2.1-ASIC1a chimeras in oocytes; type: cell-based; settings: 5 µM PcTx1, extracellular application, external 50 mM KCl, n = 3
From the text: Chimeras were generated using sequential PCR with the Kv2.1∆7 channel ([Li-Smerin and Swartz, 1998]) as template. Primers encoding the 9-amino acid sequence of helix-5 from ASIC1a were utilized for overlap PCR. The DNA sequence of all constructs and mutants was confirmed by automated DNA sequencing. Complementary RNA (cRNA) was synthesized using T7 polymerase (mMessage mMachine kit; Ambion) after linearizing the DNA with appropriate restriction enzymes.
Oocytes from Xenopus laevis were removed surgically and incubated with agitation for 1 hr in a solution containing (in mM) 82.5 NaCl, 2.5 KCl, 1 MgCl2, 5 HEPES, pH 7.6 (with NaOH), and collagenase (2 mg/ml; Worthington Biochemical). Defolliculated oocytes were injected with cRNA encoding the Kv2.1 channel constructs and incubated at 17°C in a solution containing (in mM) 96 NaCl, 2 KCl, 1 MgCl2, 1.8 CaCl2, 5 HEPES, pH 7.6 with NaOH, and gentamicin (50 μg/ml, GIBCO-BRL), for 16–72 hr before electrophysiological recording. Oocyte membrane voltage was controlled using an OC-725C oocyte clamp (Warner Instruments). Data were filtered at 1 kHz and digitized at 10 kHz. Microelectrode resistances were 0.1–1 MΩ when filled with 3 M KCl. […] All experiments were performed at room temperature (∼22°C). Voltage-activations relationships in the absence and presence of different concentrations of the synthesized toxin were recorded. […]

[5] = Depth-dependent quenching of Trp fluorescence by brominated (diBr) phosphatidylcholines; type: physicochemical; settings: 6,7-, 9,10- or 11,12-diBr PC : POPG 1:1 vesicles, 1.2 mM lipid
Method: For depth-dependent fluorescence quenching experiments with brominated lipids, LUVs contained a 1:1 molar ratio of POPG and POPC 6,7-, 9,10-, or 11,12-1-palmitoyl-2-stearoyl(dibromo)-sn-glycero-3-phosphocholine (diBr; Avanti Polar Lipids, Alabaster, AL). Fluorescence spectra were recorded between 300 and 450 nm using an excitation wavelength of 280 nm, corrected for vesicle scattering and normalized to the zero lipid fluorescence intensity.

[6] = Acrylamide dequenching by lipid vesicles (quenching-enhanced fluorescence titration); type: physicochemical; settings: LUVs POPC:POPG 1:1
Method: as §1

[7] = Membrane partitioning into lipid vesicles detected with intrinsic Trp fluorescence (blue shift); type: physicochemical; settings: lipid vesicles POPC:POPG 1:1
Method: Large unilamellar vesicles (LUVs) were prepared by drying the phospholipids from a chloroform solution under a nitrogen stream. The dried lipid film was rehydrated in buffer containing 10 mM HEPES, 1 mM EDTA, pH 7.6 (HEB). The resulting dispersions were extruded through 100 nm pore size polycarbonate filters (Millipore Corp.) till the solution became clear. All fluorescence measurements were performed in quartz cuvettes with 1 cm path length. Fluorescence spectra (averaging three spectra) were recorded between 300 and 450 nm (5 nm band pass, 0° polarizer) using an excitation wavelength of 280 nm (5 nm band pass, 90° polarizer) (SPEX FluoroMax 3 spectrofluorometer) and corrected for vesicle scattering. […] Mole-fraction partitioning coefficients (Kx) were calculated by measuring the fluorescence intensity (F) at 320 nm and normalizing to the zero lipid fluorescence intensity (F0) ([Ladokhin et al., 2000]; [Milescu et al., 2007]). Kx was calculated based on the best fits of the following equation to the data: F/F0(L) = 1 + (F/F0^max − 1)Kx[L]/([W] + Kx[L]), where F/F0(L) is the change in fluorescence intensity for a given concentration of lipid, F/F0^max is the maximum fluorescence increase at high lipid concentrations, [L] is the average available lipid concentration (60% of total lipid concentration) and [W] is the molar concentration of water (55.3 M).

[8] = analysis of quenching profiles with brominated lipids; ref Phillips et al., 2005; Swartz, 2007; Jung et al., 2010; Mihailescu et al., 2014; cited from earlier work
From the text: The results thus far reveal that both classes of tarantula toxins interact quite favorably with lipid membranes. […] For example, the solvent accessible surface area for the hydrophobic surface of PcTx1 is 380 Å^2, which compares with a value of 703 Å^2 for GxTx-1E. In addition, the hydrophobic surfaces on the two toxins are situated on distinct surfaces (Figure 1D,E). These differences between PcTx1 an ...

Question: With `CC(C)C[C@@H]1NC(=O)CNC(=O)[C@H](Cc2c[nH]c3ccccc23)NC(=O)[C@H](CCCCN)NC(=O)[C@@H]2CCCN2C(=O)[C@H](CO)NC(=O)[C@@H]2CSSC[C@@H]3NC(=O)[C@H](CCCCN)NC(=O)[C@H](Cc4c[nH]c5ccccc45)NC(=O)[C@H](Cc4c[nH]c5ccccc45)NC(=O)[C@H](Cc4ccccc4)NC(=O)CNC(=O)CNC(=O)[C@@H](NC(=O)[C@H](CCC(=O)O)NC(=O)CNC(=O)[C@@H](N)CCC(=O)O)CSSC[C@H](NC(=O)[C@H](CSSC[C@@H](C(=O)N[C@@H](CC(N)=O)C(=O)N[C@@H](Cc4ccccc4)C(=O)N4CCC[C@H]4C(=O)N[C@@H](C)C(=O)N4CCC[C@H]4C(=O)O)NC1=O)NC(=O)[C@H](C)NC(=O)[C@@H]1CCCN1C(=O)[C@H](CCCCN)NC(=O)CNC(=O)[C@H](CO)NC(=O)CNC3=O)C(=O)N1CCC[C@H]1C(=O)N[C@@H](CCCCN)C(=O)N[C@@H](Cc1ccc(O)cc1)C(=O)N[C@@H](C(C)C)C(=O)N2` [Nle35A] as the compound, how does the “∆∆G (perturbation energy)” value ([1]; from apparent Kd of mutant vs GxTx-1E(Nle), Kv2.1 in oocytes) read?
Answer: 0.19 kcal/mol

Question: Which “affinity for ASIC1a (in words)” value [2] does the source give for PcTx1 here?
Answer: nM affinity

Question: And the “Ksv (Stern–Volmer constant), acrylamide quenching in aqueous solution” value ([3]; toxin ∼2 µM in solution, no lipid)?
Answer: 29.2 M⁻¹

Question: What about the “Ksv (Stern–Volmer constant), acrylamide quenching in presence of lipid vesicles” value ([3]; toxin ∼2 µM with 1.0 mM POPC:POPG 1:1 vesicles (toxin:lipid 1:500)) of the same compound?
Answer: 11.2 M⁻¹

Question: What about the “effect on activity of five Kv2.1-ASIC1a chimeras (G-V relations)” value [4] of the same compound?
Answer: no discernible effect

Question: And the “quenching of Trp fluorescence by brominated lipids (in words)” value [5]?
Answer: very weak quenching

Question: What about the “Kdx (mole-fraction partitioning coefficient from acrylamide dequenching)” value ([6]; maximal fluorescence intensity vs available lipid, ∼2 µM toxin, acrylamide 0.2 M / 0.3 M (methods), mean ± SEM (n = 3)) of the same compound?
Answer: (4.3 ± 0.6) × 10^6

Question: What about the “F/F0^max (dequenching function fit)” value ([6]; maximum fluorescence increase at highest lipid concentration, acrylamide present) of the same compound?
Answer: 2.7 ± 0.08

Question: What about the “maximal blue shift of Trp emission spectrum upon addition of lipid vesicles” value [7] of the same compound?
Answer: ~2 nm

Question: And the “effect on the Kv2.1 channel (G-V relation)” value ([1]; 5 µM PcTx1, oocytes, external solution 50 mM KCl, tail currents, n = 3)?
Answer: no effect

Question: For hanatoxin, which “position of Trp residues from the center of the bilayer” value [8] is on record?
Answer: 8–9 Å

— PMC4423116, “Tarantula toxins use common surfaces for interacting with Kv and ASIC ion channels” (eLife, 2015)
